System: Cc1cn([C@H]2C[C@H](O)[C@@H](COP(=O)(O)OP(=O)(O)O[C@H]3O[C@H](C)[C@@H](O)[C@H](N)[C@H]3O)O2)c(=O)[nH]c1=O
Assay: purified protein
Settings: 5 mM N10-formyl-THF, 50 mM HEPPS pH 8.0, hyperbolic

How did the Km turn out when QdtF (Providencia alcalifaciens) was run?
Its Km is 450 ± 90 µM.

What about the kcat of the same substance?
The kcat was 2.43 ± 0.31 s⁻¹.

And the kcat/Km?
The kcat/Km was 5400 M⁻¹ s⁻¹.
